Target: LcrV (V antigen) of Yersinia pestis (Yersinia pestis, UniProt P0C7U7 1-326)
Test: SPR; Biacore 3000; […]; HBS-P pH 7.4; […]
Conditions: both partners purified

Sequence of LcrV (V antigen) of Yersinia pestis (P0C7U7 whole entry): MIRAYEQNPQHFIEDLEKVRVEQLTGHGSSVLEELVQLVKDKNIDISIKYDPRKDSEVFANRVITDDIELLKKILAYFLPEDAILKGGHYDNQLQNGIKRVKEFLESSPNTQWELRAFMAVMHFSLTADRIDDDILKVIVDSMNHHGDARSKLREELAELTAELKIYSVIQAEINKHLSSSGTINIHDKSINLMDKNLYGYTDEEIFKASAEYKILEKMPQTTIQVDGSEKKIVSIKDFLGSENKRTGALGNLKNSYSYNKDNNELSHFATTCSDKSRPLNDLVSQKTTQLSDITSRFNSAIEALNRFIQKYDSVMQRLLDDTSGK

B1: wild-type human interferon-gamma (ligand, UniProt P01579 24-166, looked up)
chain: QDPYVKEAENLKKYFNAGHSDVADNGTLFLGILKNWKEESDRKIMQSQIVSFYFKLFKNFKDDQSIQKSVETIKEDMNVKFFNSNKKKRDDFEKLTNYSVTDLNVQRKAIHELIQVMAELSPAAKTGKRKRSQMLFRGRRASQ
notes: also called IFNγ; IFNγwt
- Kd: 32 nM
